Target: GmMYB176-YFP (soybean (Glycine max))
Assay: FRET or BRET; FRET by acceptor bleaching, CFP as donor and YFP as acceptor, co-expressed in N. benthamiana leaf epidermal cells; average of multiple samples (n > 15)

FRET efficiency: 23.8%
Substance: GmCYP1-CFP (from UniProt Q8W171 1-172) (natural protein)
